Results on 1 protein are retold here after publication PMC5120207, “An archaeal ADP-dependent serine kinase involved in cysteine biosynthesis and serine metabolism” (Nature Communications, 2016).

As a reminder, the Km is the concentration of substrate that gives half-maximal velocity. What is called kcat is the maximal rate divided by the concentration of active sites.

Substrate in series [1]: N[C@@H](CO)C(=O)O
Kind of series: purified protein. The following applies: ADP co-substrate, MgCl2, 50 mM Tris-HCl pH 7.5, 85 °C (standard assay; 20 mM each ADP and MgCl2).

Substrate in series [2]: Nc1ncnc2c1ncn2[C@@H]1O[C@H](COP(=O)(O)OP(=O)(O)O)[C@@H](O)[C@H]1O
Kind of series: HPLC of AMP formed from ADP. The format is biochemical, Thermococcus kodakarensis. To be noted: L-serine co-substrate (50 mM in standard assay), MgCl2, 50 mM Tris-HCl pH 7.5, 85 °C.

B1: TK0378 protein; ADP-dependent Ser kinase (SerK; Tk-SerK) (Thermococcus kodakarensis KOD1) (protein)
chain: MGVEKVPKYDIPTKKVDYVFIELDKMKPHEQLVQKELEAFIESVTGSGIFWKPMLLAKVPGEDMYLIVDGHHRWAGLQKLGAKRAPSVILDYFSDDVKVYTWYPAFKGDLNEVVERLKKEGLEVIEDPEAEEKAERGEIAFALVGEKSFAIPGGLEEQKKVSKVLDEMSVEGKIELIYYGLKEDAREDMAKGEIDYVFIRKAPTKEEVMELVKRGEVYSPKTTRHVLPFNPDKIDVKLEELF
notes: full coding region in pET21a(+) (NdeI/EcoRI), no tag mentioned; E. coli BL21-CodonPlus(DE3)-RIL; heat treatment, Resource Q, Superdex 200
On to B1, for which, in series [1], the Michaelis-Menten constant (Km) was found to be 5.1 ± 0.5 mM and the kcat turned out to be 218 ± 5 s⁻¹. Moreover, in series [2], the Km turned out to be 2.4 ± 0.5 mM and the catalytic constant (kcat) came out at 204 ± 12 s⁻¹.
